Test results taken from the supplement of paper PMC10567573.

B1: TOR1AIP2 (parent)
chain: YKYCDHENAAFKDVALVLTVLLEE
B2: SLC19A2 (parent)
chain: FASLRPSEPFLTPYLLGPDKNLTE

Variants of: B1
Test: protein stability index of a GFP-peptide fusion (GPS, HEK-293T) (PSI 1-6); higher = more stable
Settings: c terminus: a fixed tail appended
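Note: lentivirally expressed fusions sorted by FACS into six bins by GFP to DsRed ratio, PSI derived from sequencing read proportions per bin multiplied by bin number.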

Protein stability index: each site, then its substitutions
L16: H 1.9, R 1.4, K 2.72, E 1.51, N 2.88, C 1.47, P 2.36, W 3.88, T 1.5, S 2.2
E24: H 3.71, D 2.86, I 3.78, S 3.26, A 2.84, F 3.27, N 3.74, K 2.19, Y 2.58, R 3.2
Y3: P 3.07, L 2.89, D 2.78, C 1.51, S 2.41, A 3.02, V 1.83
T19: N 2.25, P 1.74, K 4.43, L 3.88, D 1.3, R 4.55, M 2.87, F 2.68, H 1.67, C 5.95
F11: A 2.73, N 1.38, Q 2.6, S 2.04, Y 2.67, H 2.44, C 1.03, I 1.07, K 1.2, G 3.68, T 1.49
H6: Q 3.06, L 2.49, V 2.57, G 2.26, C 2.09, I 1.05, P 2
E7: S 2.31, P 3.94, Q 2.52, L 2.71, R 2.5, C 4.53, I 3.39, N 3.84
E23: N 2.26, L 5.46, H 2.89, P 4, I 2.81, Q 2.07, C 4.77, A 3.33
V20: Y 3.45, S 1.41, C 2.82, P 2.23, N 2.29, D 2.21, G 2.83, A 1.06, R 2.03, H 1.46, E 1.73, K 2.03, M 4.6, T 2.03, Q 1.56
D5: E 3.08, L 2.43, Y 2.4, R 3.8, P 3.2, N 2.94, S 2.61
Y1: C 2.66, H 1.04, R 2.28, P 1.71, K 2.68, N 2.13, D 1.03, T 2.48, L 2.17
K12: D 1.81, Q 3.33, Y 2.97, C 4.02, A 3.1
L21: Q 1.73, W 2.84, G 1.05, P 1.73, S 1.5, D 2.29, T 4.25, M 2.03, C 1.47, I 2.99
A15: G 3.58, T 3.21, R 2.8, Q 2.58, P 2.05, S 2.69, I 1.96, E 1
V17: S 3.6, D 2.23, W 2.31, N 2.3, F 2.66, P 3.33, R 1.73, K 1.89, Q 1.84, G 2.05, M 1.94, E 2.51, Y 3.19, A 3.79
N8: V 1.81, R 4.51, S 2.9, Q 2.7, E 1.56, Y 2.07, M 3.45
V14: P 1.88, R 1.54, L 4.94, I 2.17, A 2.48, T 1, C 1.65, K 2.12, D 1.46, E 1.57, H 1.4
L18: K 3.17, P 3.09, S 3.57, H 2.77, D 4.76, I 4.54, Y 1.43, G 3.58, Q 3.16, T 1.96, E 3.93, A 1.91, F 2, C 1.6, N 3.26, R 2.16
C4: G 1.35, D 1.05
A10: G 2.42, M 1.93, P 1.16, I 2.35, S 1.98, R 1.01, Y 3.38, W 3.86, K 3.02, L 2.83
K2: Y 2.95, D 2.03, L 2.81, W 1.98, S 2.14, M 1.96, N 1.99
A9: N 3.72, E 1.75, Q 3.72, W 3.05, D 1.4, C 4.55, I 3.88
L22: Y 3.23, N 3.49, R 2.7, D 2.07, H 2.53, Q 1, A 3.63, S 1.12
D13: F 2.83, L 3.1, Y 4.52, T 2.09, S 2.91, Q 2.66, G 1.75, E 2.46, C 2.1

Variants of: B2
Test: as above
Settings: c terminus: a fixed tail appended

Protein stability index, by site and new letter:
E24: T 1.8, R 2.39, G 2.15, S 1.94, V 1.49, C 2.46, D 2.01, H 1.93, M 2.03, I 2.1, P 2.41, N 1.38, Y 2.08, K 1.96, A 1.89, Q 2.06, L 1.27, F 2.45, W 2.43
T23: D 1.97, Y 2.27, C 2.12, R 1.42, M 1.52, I 1.58, E 2.02, H 2.8, K 2.09, S 1.7, L 1.64, F 1.3, Q 3.16, G 1.86, A 2.24, P 2.31, W 1.65, N 1.84, V 1.29
L22: V 1.52, F 1.62, E 2.03, M 1.59, I 1.86, T 2.25, N 2.35, R 1.92, W 1.98, Y 1.84, H 2.16, K 2.34, C 1.96, Q 1.99, D 2.65, A 2.1, G 2.04, S 2.1, P 1.86
K20: T 1.45, Q 2.05, Y 1.28, V 1.84, R 1.94, W 2.04, S 2.29
N21: G 1.52, Y 2.42, L 1.87, D 1.84, F 1.67, Q 1.88, P 1.31, I 2.02, C 1.33, V 2.51, R 1.95, H 1.29, T 1.56, E 2.02, W 2.31, K 1.6, S 1.47, A 1.51, M 2.39
